We go through one molecule from patent publication CN114874330A.

In assay [1] the target is BCMA-CAR (CAR with the CT103A scFv) on cells. The assay is described as follows: flow cytometry, AF647-labelled antibody on BCMA-CAR-Jurkat cells; SECOND series, also printed as 12F1 (possibly 6G8), 2-fold dilution step 1 of 10 (highest). On the set-up: scale not given here. In general terms: Flow cytometry measures light scatter and fluorescence of single cells or particles in a stream.

For assay [2] the target is unchanged. Put plainly: flow cytometry, AF647-labelled antibody on BCMA-CAR-Jurkat cells; first series, 2-fold dilution step 9 of 10. On the set-up: scale not given here.
Assay [3] has the same target. The assay is described as follows: flow cytometry, AF647-labelled antibody on BCMA-CAR-Jurkat cells; SECOND series, also printed as 12F1 (possibly 6G8), step 8 of 10. On the set-up: scale not given here.
For assay [4] the target is unchanged. Put plainly: flow cytometry, AF647-labelled antibody on BCMA-CAR-Jurkat cells; first series, 2-fold dilution step 10 of 10 (lowest). On the set-up: scale not given here.
Assay [5] has the same target. The assay is described as follows: flow cytometry, AF647-labelled antibody on BCMA-CAR-Jurkat cells; SECOND series, also printed as 12F1 (possibly 6G8), step 10 of 10 (lowest). On the set-up: scale not given here.
Assay [6] shares this target. The assay is described as follows: flow cytometry, AF647-labelled antibody on BCMA-CAR-Jurkat cells; first series, 2-fold dilution step 8 of 10. On the set-up: scale not given here.
Assay [7] has the same target. Put plainly: flow cytometry, AF647-labelled antibody on BCMA-CAR-Jurkat cells; first series, 2-fold dilution step 7 of 10. On the set-up: scale not given here.
For assay [8] the target is unchanged. The assay is described as follows: flow cytometry, AF647-labelled antibody on BCMA-CAR-Jurkat cells; SECOND series, also printed as 12F1 (possibly 6G8), step 5 of 10. On the set-up: scale not given here.
For assay [9] the target is unchanged. Put plainly: flow cytometry, AF647-labelled antibody on BCMA-CAR-Jurkat cells; first series, 2-fold dilution step 4 of 10. On the set-up: scale not given here.
For assay [10] the target is unchanged. Put plainly: flow cytometry, AF647-labelled antibody on BCMA-CAR-Jurkat cells; SECOND series, also printed as 12F1 (possibly 6G8), step 7 of 10. On the set-up: scale not given here.
Assay [11] has the same target. The assay is described as follows: flow cytometry, AF647-labelled antibody on BCMA-CAR-Jurkat cells; SECOND series, also printed as 12F1 (possibly 6G8), step 6 of 10. On the set-up: scale not given here.
The target is the same in assay [12]. The assay is described as follows: flow cytometry, AF647-labelled antibody on BCMA-CAR-Jurkat cells; first series, 2-fold dilution step 6 of 10. On the set-up: scale not given here.
For assay [13], the target named is CT103A scFv. The assay is described as follows: competition ELISA, antibody at 500 ng/ml pre-incubated with biotin-CT103A scFv; competitor: coated BCMA.
Assay [14] concerns the target BCMA-CAR (CAR with the CT103A scFv) on cells. The assay is described as follows: flow cytometry, AF647-labelled antibody on BCMA-CAR-Jurkat cells; SECOND series, also printed as 12F1 (possibly 6G8), step 2 of 10. On the set-up: scale not given here.
The target is the same in assay [15]. The assay is described as follows: flow cytometry, AF647-labelled antibody on BCMA-CAR-Jurkat cells; SECOND series, also printed as 12F1 (possibly 6G8), step 9 of 10. On the set-up: scale not given here.
Assay [16] has the same target. Put plainly: flow cytometry, AF647-labelled antibody on BCMA-CAR-Jurkat cells; SECOND series, also printed as 12F1 (possibly 6G8), step 3 of 10. On the set-up: scale not given here.
Assay [17] shares this target. The assay is described as follows: flow cytometry, AF647-labelled antibody on BCMA-CAR-Jurkat cells; first series, 2-fold dilution step 2 of 10. On the set-up: scale not given here.
For assay [18] the target is unchanged. The assay is described as follows: flow cytometry, AF647-labelled antibody on BCMA-CAR-Jurkat cells; first series, 2-fold dilution step 1 of 10 (highest); negative control MFI 0.18. On the set-up: scale not given here.
Assay [19] shares this target. The assay is described as follows: flow cytometry, AF647-labelled antibody on BCMA-CAR-Jurkat cells; first series, 2-fold dilution step 5 of 10. On the set-up: scale not given here.
Assay [20] has the same target. The assay is described as follows: flow cytometry, AF647-labelled antibody on BCMA-CAR-Jurkat cells; SECOND series, also printed as 12F1 (possibly 6G8), step 4 of 10. On the set-up: scale not given here.
The target in assay [21] is CT103A scFv. Put plainly: competition ELISA, antibody at 1000 ng/ml pre-incubated with biotin-CT103A scFv; competitor: coated BCMA. (An ELISA detects its analyte on a solid surface through an enzyme-linked reagent.)
Assay [22] concerns the target BCMA-CAR (CAR with the CT103A scFv) on cells. The assay is described as follows: flow cytometry, AF647-labelled antibody on BCMA-CAR-Jurkat cells; first series, 2-fold dilution step 3 of 10. On the set-up: scale not given here.

Chain of BCMA-CAR (CAR with the CT103A scFv) on cells (chain, as listed by the source): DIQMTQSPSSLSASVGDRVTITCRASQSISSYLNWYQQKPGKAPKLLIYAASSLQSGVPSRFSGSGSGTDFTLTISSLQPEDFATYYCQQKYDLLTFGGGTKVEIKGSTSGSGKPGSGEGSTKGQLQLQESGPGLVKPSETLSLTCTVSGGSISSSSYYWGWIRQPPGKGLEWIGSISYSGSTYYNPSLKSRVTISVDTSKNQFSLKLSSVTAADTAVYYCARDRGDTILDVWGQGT
Chain of CT103A scFv (scFv, as listed by the source): as the sequence (chain, as listed by the source) above

B1: 12F1 (antibody, V domains shown)
VH: QSLEESGGRLVTPGTPLTLTCTVSGFSLNSNAMGWVRQAPGKGLEYIGFIAAYGDTHNATWAKGRFTISKTSTTVDLKITSPTTEDTATYFCASTYGGDGGWYFNIWGPGTLVTVSE
VL: AFELTQTPSSVEAAVGGTVIIKCQASQNIVRYLSWYQQKPGQPPKLLIYEASNLASGVPSRFSGSGSGTEFTLTISDLECADAATYYCQSYYDAESFNTFGGGTEVVVKG
Consider B1, for which the MFI in assay [1] worked out at 4.66; in [2], 1.53; in assay [3], 0.31; in assay [4] it was 0.94; in [5], 0.22; in assay [6], 2.83. The MFI in assay [7] came out at 4.37; in assay [8], 0.81; in assay [9] it was 14.3; in assay [10], 0.37; in assay [11], 0.53; in assay [12], 7.73. The MFI in [14] amounted to 3.16; in assay [15], 0.25; in [16], 1.98; in [17], 15.3; in [18] it was 15.3; in assay [19], 12.4. Besides, the MFI in [20] came out at 1.28; in [22], 15.3. For the same molecule, the 信号抑制率 with CT103A scFv [13] and in the assay with CT103A scFv [21] was above 90% throughout.
